For the data set the following is noted: Bacillus amyloliquefaciens, pH 7.4, Thermal, DSC, Sodium phosphate 50 mM, reversible: yes, whole UniProt chain shown.

B1: Barstar wild type, P11540 (protein)
chain: MKKAVINGEQIRSISDLHQTLKKELALPEYYGENLDALWDCLTGWVEYPLVLEWRQFEQSKQLTENGAESVLQVFREAKAEGCDITIILS
Consider B1, for which the Tm is 72.8 °C, the “heat capacity change of unfolding” value amounted to 1.27 kcal/mol/K and the “unfolding enthalpy (calorimetric)” value amounted to 72.5 kcal/mol. Where the note is “25 °C”, the “heat capacity change of unfolding” value turned out to be 1.27 kcal/mol/K and the unfolding free energy was 5.62 kcal/mol.

The values above are taken from FireProtDB (doi:10.1002/pro.5560061014).
